Molecular target: Collagen I
Assay: cell-based or functional assay

adhesion of EPCs (CD34+ cells) to immobilized collagen I, flow chamber model (2,000 sec^-1), fold against collagen alone: 10 fold | adhesion of EPCs (CD34+ cells) to immobilized collagen I, static adhesion assay, fold against collagen alone: 5 fold
B1: GPVI-CD133 construct (bispecific fusion protein: soluble GPVI-Fc chemically conjugated via SPDP to the CD133-reactive monoclonal antibody W6B3C1) (protein, part only; not given: Fc and anti-CD133 antibody chains, human, not shown: a dimerising Fc or GST)
chain, part: QSGPLPKPSLQALPSSLVPLEKPVTLRCQGPPGVDLYRLEKLSSSRYQDQAVLFIPAMKRSLAGRYRCSYQNGSLWSLPSDQLELVATGVFAKPSLSAQPGPAVSSGGDVTLQCQTRYGFDQFALYKEGDPAPYKNPERWYRASFPIITVTAAHSGTYRCYSFSSRDPYLWSAPSDPLELVVTGTSVTPSRLPTEPPSSVAEFSEATAELTVSFTNKVFTTETSRSITTSPKESDSPAGPARQYYTK
modifications: amino groups modified with SPDP (N-succinimidyl 3-(2-pyridyldithio)-propionate), reduced with DTT and conjugated to the SPDP-modified CD133 antibody

Reference: patent US20100068145A1
